Here are results for twelve variants from IntAct's records for PubMed 18940603.

The labels stand for the following.
B1: Ras-related protein Rab-27A (Mus musculus), Q9ERI2 (parent)
chain: MSDGDYDYLIKFLALGDSGVGKTSVLYQYTDGKFNSKFITTVGIDFREKRVVYRANGPDGAVGRGQRIHLQLWDTAGQERFRSLTTAFFRDAMGFLLLFDLTNEQSFLNVRNWISQLQMHAYCENPDIVLCGNKSDLEDQRAVKEEEARELAEKYGIPYFETSAANGTNISHAIEMLLDLIMKRMERCVDKSWIPEGVVRSNGHTSADQLSEEKEKGLCGC
partner: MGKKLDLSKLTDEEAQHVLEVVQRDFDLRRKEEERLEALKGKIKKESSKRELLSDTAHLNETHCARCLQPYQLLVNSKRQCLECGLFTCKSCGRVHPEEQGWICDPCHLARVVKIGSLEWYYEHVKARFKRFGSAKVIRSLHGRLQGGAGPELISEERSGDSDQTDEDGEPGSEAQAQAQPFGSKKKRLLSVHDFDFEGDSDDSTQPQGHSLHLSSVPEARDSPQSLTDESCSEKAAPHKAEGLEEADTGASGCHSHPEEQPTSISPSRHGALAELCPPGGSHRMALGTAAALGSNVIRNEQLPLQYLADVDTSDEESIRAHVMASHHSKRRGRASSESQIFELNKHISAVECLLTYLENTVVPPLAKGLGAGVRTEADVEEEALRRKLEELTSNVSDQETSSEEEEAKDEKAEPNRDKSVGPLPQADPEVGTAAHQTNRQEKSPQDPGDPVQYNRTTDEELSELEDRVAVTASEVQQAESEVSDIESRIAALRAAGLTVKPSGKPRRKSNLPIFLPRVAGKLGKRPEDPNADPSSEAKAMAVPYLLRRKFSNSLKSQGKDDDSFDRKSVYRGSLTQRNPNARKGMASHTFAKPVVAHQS
B2: Ras-related protein Rab-27A (Mus musculus), Q9ERI2 (parent)
chain: B1 chain
partner: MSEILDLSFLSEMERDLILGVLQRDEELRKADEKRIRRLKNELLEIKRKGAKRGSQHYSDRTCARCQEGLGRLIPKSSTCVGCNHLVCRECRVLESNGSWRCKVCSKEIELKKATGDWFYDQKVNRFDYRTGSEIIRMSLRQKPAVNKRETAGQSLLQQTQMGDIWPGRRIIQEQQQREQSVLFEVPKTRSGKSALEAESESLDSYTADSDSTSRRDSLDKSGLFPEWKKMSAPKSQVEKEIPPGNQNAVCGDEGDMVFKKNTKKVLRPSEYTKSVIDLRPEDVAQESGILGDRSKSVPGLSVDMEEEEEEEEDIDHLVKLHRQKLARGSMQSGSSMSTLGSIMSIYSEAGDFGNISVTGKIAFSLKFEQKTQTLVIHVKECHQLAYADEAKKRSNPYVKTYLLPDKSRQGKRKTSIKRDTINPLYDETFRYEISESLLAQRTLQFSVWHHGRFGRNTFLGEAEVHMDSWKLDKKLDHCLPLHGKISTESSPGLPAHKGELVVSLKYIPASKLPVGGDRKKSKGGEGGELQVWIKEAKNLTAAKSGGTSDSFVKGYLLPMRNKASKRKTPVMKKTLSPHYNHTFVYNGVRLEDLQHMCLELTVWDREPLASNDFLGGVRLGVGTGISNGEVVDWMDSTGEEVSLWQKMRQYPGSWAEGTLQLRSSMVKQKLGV
B3: Ras-related protein Rab-27A (Mus musculus), Q9ERI2 (parent)
chain: B1 chain
partner: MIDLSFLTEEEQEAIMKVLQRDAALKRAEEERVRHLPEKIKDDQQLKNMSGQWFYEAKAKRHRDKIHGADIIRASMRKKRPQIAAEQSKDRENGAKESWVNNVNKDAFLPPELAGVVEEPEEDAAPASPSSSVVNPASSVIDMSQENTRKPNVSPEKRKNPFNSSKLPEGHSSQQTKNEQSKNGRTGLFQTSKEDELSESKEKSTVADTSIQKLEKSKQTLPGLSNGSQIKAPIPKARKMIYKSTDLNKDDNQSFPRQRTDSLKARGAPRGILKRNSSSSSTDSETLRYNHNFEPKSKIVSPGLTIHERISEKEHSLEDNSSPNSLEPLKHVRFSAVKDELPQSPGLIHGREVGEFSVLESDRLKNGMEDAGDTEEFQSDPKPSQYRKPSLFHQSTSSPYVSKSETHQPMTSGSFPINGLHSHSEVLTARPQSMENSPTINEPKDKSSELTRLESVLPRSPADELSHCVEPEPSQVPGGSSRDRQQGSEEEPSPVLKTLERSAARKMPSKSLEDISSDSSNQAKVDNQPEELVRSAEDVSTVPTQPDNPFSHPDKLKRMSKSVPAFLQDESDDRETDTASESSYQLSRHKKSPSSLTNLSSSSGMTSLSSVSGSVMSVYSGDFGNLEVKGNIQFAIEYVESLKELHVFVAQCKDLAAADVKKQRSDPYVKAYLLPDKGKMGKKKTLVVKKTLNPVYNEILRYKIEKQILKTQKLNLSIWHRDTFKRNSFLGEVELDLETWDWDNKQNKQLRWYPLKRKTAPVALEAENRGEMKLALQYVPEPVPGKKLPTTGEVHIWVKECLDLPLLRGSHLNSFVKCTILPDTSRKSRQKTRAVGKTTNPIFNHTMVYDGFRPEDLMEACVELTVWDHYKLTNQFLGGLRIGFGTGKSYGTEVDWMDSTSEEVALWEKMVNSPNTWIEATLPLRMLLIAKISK
B4: Ras-related protein Rab-27B (Mus musculus), Q99P58 (parent)
chain: MTDGDYDYLIKLLALGDSGVGKTTFLYRYTDNKFNPKFITTVGIDFREKRVVYDTQGADGASGKAFKVHLQLWDTAGQERFRSLTTAFFRDAMGFLLMFDLTSQQSFLNVRNWMSQLQANAYCENPDIVLIGNKADLPDQREVNERQARELAEKYGIPYFETSAATGQNVEKSVETLLDLIMKRMEKCVEKTQVPDTVNGGNSGKLDGEKPAEKKCAC
partner: B1 partner
B5: Ras-related protein Rab-27B (Mus musculus), Q99P58 (parent)
chain: B4 chain
partner: B3 partner
B6: Ras-related protein Rab-27B (Mus musculus), Q99P58 (parent)
chain: B4 chain
partner: B2 partner

In one experiment the parent is B1. The conditions noted are these: with melph_human MLPH.
MSDGDYDYLIKFLALGDSGVGKTSVLYQYTDGKFNSKFITTVGIDFREKRVVYRANGPDGAVGRGQRIHLQLWDTAGQERFRSLTTAFFRDAMGFLLLFDLTNEQSFLNVRNWISQLQMHAYSENPDIVLCGNKSDLEDQRAVKEEEARELAEKYGIPYFETSAANGTNISHAIEMLLDLIMKRMERSVDKSWIPEGVVRSNGHTSADQLSEEKEKGLCGC [C123S;C188S]: the “effect of a mutation on the interaction” value is recorded as “increasing interaction”. Still for that read-out and setting: in the case of MSDGDYDYLIKFLALGDSGVGKTSVLYQYTDGKFNSKFITTVGIDFREKRVVYRANGPDGAVGRGQRIHLQLWDTAGQERFRSLTTAFFRDAMGFLLLFDLTNEQSFLNVRNWISQLQMHAYCENPDIVLCGNKSDLEDQRAVKEEEARELAEKYGIPYFETSAANGTNISHAIEMLLDLIMKRMERSVDKSWIPEGVVRSNGHTSADQLSEEKEKGLCGC [C188S] it was “increasing interaction”.

Variants of B2 are the subject of a further experiment. Particulars: with Sytl4, Q9R0Q1-1.
As for MSDGDYDYLIKFLALGDSGVGKTSVLYQYTDGKFNSKFITTVGIDFREKRVVYRANGPDGAVGRGQRIHLQLWDTAGQERFRSLTTAFFRDAMGFLLLFDLTNEQSFLNVRNWISQLQMHAYSENPDIVLCGNKSDLEDQRAVKEEEARELAEKYGIPYFETSAANGTNISHAIEMLLDLIMKRMERSVDKSWIPEGVVRSNGHTSADQLSEEKEKGLCGC [C123S;C188S], the “effect of a mutation on the interaction” value is “increasing interaction”. The same measure, in the same setting: in the case of MSDGDYDYLIKFLALGDSGVGKTSVLYQYTDGKFNSKFITTVGIDFREKRVVYRANGPDGAVGRGQRIHLQLWDTAGQERFRSLTTAFFRDAMGFLLLFDLTNEQSFLNVRNWISQLQMHAYSENPDIVLCGNKSDLEDQRAVKEEEARELAEKYGIPYFETSAANGTNISHAIEMLLDLIMKRMERCVDKSWIPEGVVRSNGHTSADQLSEEKEKGLCGC [C123S] it was “increasing interaction”; in that of MSDGDYDYLIKFLALGDSGVGKTSVLYQYTDGKFNSKFITTVGIDFREKRVVYRANGPDGAVGRGQRIHLQLWDTAGQERFRSLTTAFFRDAMGFLLLFDLTNEQSFLNVRNWISQLQMHAYCENPDIVLCGNKSDLEDQRAVKEEEARELAEKYGIPYFETSAANGTNISHAIEMLLDLIMKRMERSVDKSWIPEGVVRSNGHTSADQLSEEKEKGLCGC [C188S], “increasing interaction”.

The variants in the next experiment derive from B3. Particulars: with sytl2_human SYTL2, Q9HCH5.
Turning to MSDGDYDYLIKFLALGDSGVGKTSVLYQYTDGKFNSKFITTVGIDFREKRVVYRANGPDGAVGRGQRIHLQLWDTAGQERFRSLTTAFFRDAMGFLLLFDLTNEQSFLNVRNWISQLQMHAYSENPDIVLCGNKSDLEDQRAVKEEEARELAEKYGIPYFETSAANGTNISHAIEMLLDLIMKRMERSVDKSWIPEGVVRSNGHTSADQLSEEKEKGLCGC [C123S;C188S], the “effect of a mutation on the interaction” value is “increasing interaction”.

Another experiment covers variants of B4. Particulars: with melph_human MLPH.
MTDGDYDYLIKLLALGDSGVGKTTFLYRYTDNKFNPKFITTVGIDFREKRVVYDTQGADGASGKAFKVHLQLWDTAGQERFRSLTTAFFRDAMGFLLMFDLTSQQSFLNVRNWMSQLQANAYSENPDIVLIGNKADLPDQREVNERQARELAEKYGIPYFETSAATGQNVEKSVETLLDLIMKRMEKSVEKTQVPDTVNGGNSGKLDGEKPAEKKCAC [C123S;C188S]: the “effect of a mutation on the interaction” value was “increasing interaction”.

As for MTDGDYDYLIKLLALGDSGVGKTTFLYRYTDNKFNPKFITTVGIDFREKRVVYDTQGADGASGKAFKVHLQLWDTAGQERFRSLTTAFFRDAMGFLLMFDLTSQQSFLNVRNWMSQLQANAYCENPDIVLIGNKADLPDQREVNERQARELAEKYGIPYFETSAATGQNVEKSVETLLDLIMKRMEKSVEKTQVPDTVNGGNSGKLDGEKPAEKKCAC [C188S], the “effect of a mutation on the interaction” value is “increasing interaction”.

In the next experiment the parent is B5. The conditions noted are these: with sytl2_human SYTL2, Q9HCH5.
For MTDGDYDYLIKLLALGDSGVGKTTFLYRYTDNKFNPKFITTVGIDFREKRVVYDTQGADGASGKAFKVHLQLWDTAGQERFRSLTTAFFRDAMGFLLMFDLTSQQSFLNVRNWMSQLQANAYSENPDIVLIGNKADLPDQREVNERQARELAEKYGIPYFETSAATGQNVEKSVETLLDLIMKRMEKSVEKTQVPDTVNGGNSGKLDGEKPAEKKCAC [C123S;C188S], the “effect of a mutation on the interaction” value is reported as “increasing interaction”.

In the next experiment the parent is B6. Particulars: with Sytl4, Q9R0Q1-1.
With MTDGDYDYLIKLLALGDSGVGKTTFLYRYTDNKFNPKFITTVGIDFREKRVVYDTQGADGASGKAFKVHLQLWDTAGQERFRSLTTAFFRDAMGFLLMFDLTSQQSFLNVRNWMSQLQANAYSENPDIVLIGNKADLPDQREVNERQARELAEKYGIPYFETSAATGQNVEKSVETLLDLIMKRMEKCVEKTQVPDTVNGGNSGKLDGEKPAEKKCAC [C123S], the “effect of a mutation on the interaction” value is given as “increasing interaction”. For the variant MTDGDYDYLIKLLALGDSGVGKTTFLYRYTDNKFNPKFITTVGIDFREKRVVYDTQGADGASGKAFKVHLQLWDTAGQERFRSLTTAFFRDAMGFLLMFDLTSQQSFLNVRNWMSQLQANAYSENPDIVLIGNKADLPDQREVNERQARELAEKYGIPYFETSAATGQNVEKSVETLLDLIMKRMEKSVEKTQVPDTVNGGNSGKLDGEKPAEKKCAC [C123S;C188S], the “effect of a mutation on the interaction” value is given as “increasing interaction”. Still for that read-out and setting: under MTDGDYDYLIKLLALGDSGVGKTTFLYRYTDNKFNPKFITTVGIDFREKRVVYDTQGADGASGKAFKVHLQLWDTAGQERFRSLTTAFFRDAMGFLLMFDLTSQQSFLNVRNWMSQLQANAYCENPDIVLIGNKADLPDQREVNERQARELAEKYGIPYFETSAATGQNVEKSVETLLDLIMKRMEKSVEKTQVPDTVNGGNSGKLDGEKPAEKKCAC [C188S] stands “increasing interaction”.
